{
  "source": "paper PMC3866529",
  "key": {"Cys": {"test_system": "Cys", "settings": "cited from earlier work"}, "Cys22 [1]": {"target": "Cys22 (UniProt position 23, FIKPTCPYCRR)", "settings": "cited from earlier work"}, "Cys22 [2]": {"target": "Cys22 (UniProt position 23, FIKPTCPFCRK)", "settings": "cited from earlier work"}, "Cys22 [3]": {"target": "Cys22 (UniProt position 23, FIKPTCPFARK)", "settings": "cited from earlier work"}, "Cys22 [4]": {"target": "Cys22 (UniProt position 23, FIKPTCPFSRK)", "settings": "cited from earlier work"}, "Cys31": {"test_system": "Cys31", "test": "chemical modification", "settings": "Pre-incubation temperature not stated; the HED activity assay was run at 25°C; not stated (100 mM buffer); 100 mM sodium citrate or phosphate buffers; DTT-reduced WT protein, no ligand"}, "Cys23": {"test_system": "Cys23", "test": "chemical modification", "settings": "Pre-incubation temperature not stated; the HED activity assay was run at 25°C; not stated (100 mM buffer); 100 mM sodium citrate or phosphate buffers; DTT-reduced WT protein, no ligand"}, "Cys37": {"test_system": "Cys37", "test": "chemical modification", "settings": "Pre-incubation temperature not stated; the HED activity assay was run at 25°C; not stated (100 mM buffer); 100 mM sodium citrate or phosphate buffers; DTT-reduced WT protein, no ligand"}, "Cys27": {"test_system": "Cys27", "test": "chemical modification"}},
  "data": [
    {"substance": "Glutaredoxin 1 (CrGrx1) (Chlamydomonas reinhardtii)", "values": [
      {"measurement": "pKa", "setting": "Cys", "result": "3.9 ± 0.1"}
    ]},
    {"substance": "Glutaredoxin 1 (HsGrx1, thioltransferase) (Homo sapiens)", "values": [
      {"measurement": "pKa", "setting": "Cys22 [1]", "result": 3.6}
    ]},
    {"substance": "Glutaredoxin 1 (ScGrx1) (Saccharomyces cerevisiae)", "values": [
      {"measurement": "pKa", "setting": "Cys", "result": "3.2 to 4.0 ± 0.2"}
    ]},
    {"substance": "Glutaredoxin 2 (CrGrx2) (Chlamydomonas reinhardtii)", "values": [
      {"measurement": "pKa", "setting": "Cys", "result": "4.8 ± 0.1"}
    ]},
    {"substance": "Glutaredoxin 2 (HsGrx2) (Homo sapiens)", "values": [
      {"measurement": "pKa", "setting": "Cys", "result": 4.6}
    ]},
    {"substance": "Glutaredoxin 2 (ScGrx2) (Saccharomyces cerevisiae)", "values": [
      {"measurement": "pKa", "setting": "Cys", "result": "3.1 to 3.5 ± 0.2"}
    ]},
    {"substance": "Glutaredoxin (pig liver thioltransferase) (Sus scrofa)", "values": [
      {"measurement": "pKa", "setting": "Cys22 [2]", "result": 3.8}
    ]},
    {"substance": "Glutaredoxin (pig liver thioltransferase) C25A (Sus scrofa; C25A)", "values": [
      {"measurement": "pKa", "setting": "Cys22 [3]", "result": 5.9}
    ]},
    {"substance": "Glutaredoxin (pig liver thioltransferase) C25S (Sus scrofa; C25S)", "values": [
      {"measurement": "pKa", "setting": "Cys22 [4]", "result": 4.9}
    ]},
    {"substance": "Glutaredoxin C1 (PtGrxC1) (Populus sp. (poplar; 'Pt' prefix, species not spelled out in the article))", "values": [
      {"measurement": "pKa", "setting": "Cys31", "result": "5.3 ± 0.1"}
    ]},
    {"substance": "Glutaredoxin C2 (PtGrxC2) (Populus sp. (poplar; 'Pt' prefix, species not spelled out in the article))", "values": [
      {"measurement": "pKa", "setting": "Cys23", "result": "5.0 ± 0.1"}
    ]},
    {"substance": "Glutaredoxin C3 (PtGrxC3) (Populus sp. (poplar; 'Pt' prefix, species not spelled out in the article))", "values": [
      {"measurement": "pKa", "setting": "Cys37", "result": "4.6 ± 0.1"}
    ]},
    {"substance": "Glutaredoxin C4 (PtGrxC4) (Populus sp. (poplar; 'Pt' prefix, species not spelled out in the article))", "values": [
      {"measurement": "pKa", "setting": "Cys27; Pre-incubation temperature not stated, the HED activity assay was run at 25°C, not stated (100 mM buffer), 100 mM sodium citrate or phosphate buffers, DTT-reduced WT protein, no ligand", "result": "4.6 ± 0.1"}
    ]},
    {"substance": "Glutaredoxin S12 (PtGrxS12) (Populus sp. (poplar))", "values": [
      {"measurement": "pKa", "setting": "Cys27; cited from earlier work", "result": 3.9}
    ]}
  ]
}
